Substrate in this data set: O=P(O)(O)c1ccc(Cc2ccc(P(=O)(O)O)cc2)cc1
Kind of data set: Binding affinity towards the binding site of human protein tyrosine phosphatase 1B (PTP1B) enzyme expressed in Escherichia coli cells.

B1: Tyrosine-protein phosphatase non-receptor type 1 (Homo sapiens), P18031 (protein)
chain: MEMEKEFEQIDKSGSWAAIYQDIRHEASDFPCRVAKLPKNKNRNRYRDVSPFDHSRIKLHQEDNDYINASLIKMEEAQRSYILTQGPLPNTCGHFWEMVWEQKSRGVVMLNRVMEKGSLKCAQYWPQKEEKEMIFEDTNLKLTLISEDIKSYYTVRQLELENLTTQETREILHFHYTTWPDFGVPESPASFLNFLFKVRESGSLSPEHGPVVVHCSAGIGRSGTFCLADTCLLLMDKRKDPSSVDIKKVLLEMRKFRMGLIQTADQLRFSYLAVIEGAKFIMGDSSVQDQWKELSHEDLEPPPEHIPPPPRPPKRILEPHNGKCREFFPNHQWVKEETQEDKDCPIKEEKGSPLNAAPYGIESMSQDTEVRSRVVGGSLRGAQAASPAKGEPSLPEKDEDHALSYWKPFLVNMCVATVLTAGAYLCYRFLFNSNT
The term Km denotes the concentration of substrate that gives half-maximal velocity. In the case of B1, the Km came out at 16 µM.

Values taken from ChEMBL document CHEMBL1134320, “Structure of protein tyrosine phosphatase 1B in complex with inhibitors bearing two phosphotyrosine mimetics” (J Med Chem, 2001).
